For orientation: EC50 means the midpoint of the concentration-response curve. Higher therefore signals lower potency in that assay.

Residue numbers refer to the chain shown, from its start. Numbers in names are those of the source.

For one data set, the target named is T1, hCCR8 (Homo sapiens, UniProt P51685).
T1 construct: expressed in transfected cells
The data set can be described thus: Flow cytometry binding of VHH-Fc fusion antibodies to hCCR8 on stably transfected HEK293 cells. The conditions noted are these: for binding to hCCR8 expressed on HEK293 cells (in words): as Fc fusion antibodies. Here is the method: VHH-Fc fusion antibodies were evaluated for their ability to bind to hCCR8 on stably transfected HEK293 cells by means of flow cytometry. Cells were incubated with different concentrations of the bivalent VHH-Fc fusions for 60 minutes at 4° C., followed by two washes with FACS buffer, followed by 30 minutes incubation at 4° C. with the Zenon R-Phycoerythrin Anti-human IgG (ThermoFisher Scientific, #Z-25455), and two additional washing steps. Data were plotted and fit using GraphPad Prism software. EC50 and Bmax values individual antibodies were calculated from the resulting dose-response curves. Bivalent VHH-Fc fusions (Seq ID NOs: 31, 33, and 87-103) of 19 different VHH domains (SEQ ID NOs: 27, 28, and 70-86) were tested for cell binding and results are shown in Table 7. […]
(§1) VHH-Fc fusion DNA constructs were then generated comprising encoding humanized VHH sequences (SEQ ID NOs: 106-111) fused in frame to the human IgG1 (SEQ ID NO: 34) directly to the short hinge sequence in the pFuse expression vector, and were expressed, purified and analyzed for binding to HEK293 cells expressing human CCR8 as in Example 5. Binding curves for VHH-Fc antibodies comprised of parental VHH-1 and the humanized VHH derivatives VHH-1.2-Fc and VHH-1.3-Fc are shown in FIG. 9A. Binding curves for VHH-Fc antibodies comprised of parental VHH-2 and the humanized VHH derivatives VHH-2-Fc, VHH-2.2-Fc and VHH-2.3-Fc, are shown in FIG. 9B. Cell binding EC50 values, normalized Bmax (relative to respective parental clone) data and humanizing mutations are shown in Table 10 below.
Approaches such as in vitro affinity maturation and rational mutagenesis can be performed to regain binding affinity and/or stability lost through humanization. In vitro affinity maturation generally involves building and amino acid substitution library where amino acid positions are varied across the CDRs and/or framework at a defined set of positions using sets of amino acids chosen to introduce new chemical diversity. The paratope residues within the CDR regions are of course key to antigen binding and care must be taken not to disrupt important structures while attempting to evolve improve antibody behavior. One approach to identify positions that are important to the maintenance of binding properties is to perform paratope mapping using single scanning alanine substitutions across antibody CDR regions. In this approach, residues that are critical to the maintenance of antibody binding to the antigen can be identified and at the same time permissive sites can be identified where it may be possible to make substitutions of other amino acids desirable for subsequent affinity maturation library construction. Site directed mutagenesis was used to make single alanine substitutions at each residue in the CDRs of VHH-1 (SEQ ID NO: 27) and VHH-2 (SEQ ID NO: 28). Changes in VHH-1 CDR amino acids to alanine are indicated in Table 11 (SEQ ID NOs: 112-137) and for VHH-2 CDRs (SEQ ID NO: 138-162) in Table 12. Mutation positions and residue changes to alanine with respect to the in the parental VHH sequences are referenced by their IMGT position. VHH domains containing the indicated modified CDR-1, CDR-2 or CDR-3 domains were used to construct Fc fusions by direct grafting to the short hinge of the human Fc domain (SEQ ID NO: 34). VHH-Fc constructs were expressed, purified and analyzed for binding to HEK293 cells expressing hCCR8 and the results are reported in Table 11 and Table 12. EC50 values are reported for each Fc fusion antibody containing a modified CDR, along with its respective Bmax value normalized to the to the matched wild type VHH-1-Fc or VHH-2-Fc fusion antibody.

Data set [1] addresses T2, HuT-78 cells that naturally express human CCR8 (Homo sapiens, UniProt P51685).
T2 construct: HuT-78 cells that naturally express human CCR8 were used as target cells; endogenous in cells; host or cells: HuT-78
The data set can be described thus: Flow cytometry binding of yeast-display optimized VHH-Fc antibodies to HuT-78 cells. Particulars: Table 13; for EC50: clones tested as VHH-Fc fusions (human IgG1 Fc), HuT-78 cells; for Normalized Bmax (%): normalized to VHH-1 or VHH-2 depending on clone family. The source says: Top VHH sequences were chosen from the FACS sorted populations based on an analysis of improved binding performance relative to the parental sequences and evidence of sequence enrichment by NGS. Candidate VHH were then cloned as VHH-Fc fusions to the short hinge of the IgG1 Fc domain (SEQ ID NO: 34), expressed in HEK293 cells as described earlier and purified for binding evaluation. Bmax values are shown as normalized to VHH-1 or VHH-2 depending on the clone family. […] Mutations are referenced by position according to the IMGT definition.
(In flow cytometry, cells or beads pass a laser one at a time.)

Data set [2] in a line: Production and purification of humanized VHH-Fc from cells. Particulars: most humanized variants.
Excerpt: as §1
Humanization within the framework regions of VHH and other antibodies is known to often have negative impacts of on protein properties such as destabilization of the VHH fold or loss of binding affinity. This is most common when humanized versions of antibodies are constructed by “CDR grafting”, where the individual CDRs are transferred directly to a fully human framework.

For data set [3], the system named is MC38 mouse colon cancer cells. As to the kind of experiment: MC38 tumor growth inhibition study in human CCR8 transgenic mice. Type of data set: in vivo. The conditions noted are these: 30 mg/kg IV 3 times per week, Day 16, p=0.0169. The procedure: Human CCR8 transgenic (hCCR8-tg) mice (#110096, Biocytogen, China) were inoculated with MC38 mouse colon cancer cells subcutaneously. After the average tumor size reached approximately 150 mm3, mice were randomized based on tumor size and treatment was initiated. Mice were treated IV 3 times per week with 30 mg/kg VHH-1-mFc (SEQ ID NO: 239) or an IgG2a Fc control (recombinant IgG2a Fc, #BE0097, BioXcell). Tumor volume was measured twice per week using a caliper, and the volume expressed in mm3 using the formula: V (mm3)=(a×b2)/2 where a and b were the long and short diameters of the tumor, respectively. The tumor size was then used for calculations of tumor growth inhibition (T/C) values (where T was the treatment group and C is the control group). The T/C value (in percent) is an indication of antitumor effectiveness; T and C were the mean volume of the treated and control groups, respectively, on a given day. […] To determine whether group treated with various test articles had statistically significant anti-tumor effects compared to the mouse IgG2a Fc control, the MC38 tumor volumes were analyzed by one-way ANOVA and multiple comparison test at day 16. […] In addition, the tumor growth inhibition (TGI) was also calculated during the study until Day 16. On Day 16, the TGIs for VHH-1-mFc were 50.3%, (p=0.0169).

T1 sequence (P51685 whole entry): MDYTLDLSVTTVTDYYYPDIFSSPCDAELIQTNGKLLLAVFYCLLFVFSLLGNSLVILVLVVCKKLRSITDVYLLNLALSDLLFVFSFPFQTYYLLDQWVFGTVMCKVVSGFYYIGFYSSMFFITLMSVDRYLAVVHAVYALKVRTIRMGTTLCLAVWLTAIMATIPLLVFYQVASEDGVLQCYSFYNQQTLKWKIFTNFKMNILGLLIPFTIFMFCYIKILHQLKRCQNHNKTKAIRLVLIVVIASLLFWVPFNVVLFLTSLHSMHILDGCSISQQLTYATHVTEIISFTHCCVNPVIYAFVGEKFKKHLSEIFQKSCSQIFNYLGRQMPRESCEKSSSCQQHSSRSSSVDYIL
T2 sequence (P51685 whole entry): as above

B1: VHH-2.2: humanized VHH-2, version 2, SEQ ID NO: 110 (protein)
VHH: EVQLVESGGGLVQPGGSLRLSCAVSGSTSTINRFAWYRQAPGKGLEWVAATSSRTSPNYADSVKGRFTFSRDNSKNTVYLQMNSLRAEDTAVYYCQARMAMGSSQVVYWGQGTTVTVSS
Consider B1, for which the “binding to hCCR8 expressed on HEK293 cells (in words)” value (from here on “binding to hCCR8 expressed”) in the data set with hCCR8 is reported as “maintained their hCCR8 binding properties”.

B2: VHH-2.3: humanized VHH-2, version 3, SEQ ID NO: 111; Table 13 tested as Fc fusion (protein)
VHH: B1 VHH with L45R, W47L
Consider B2, for which, in the data set with hCCR8, the “binding to hCCR8 expressed” value is listed as “maintained their hCCR8 binding properties”. Further, in data set [1], the EC50 is 1.19 nM and the “Normalized Bmax (%)” value turned out to be 88.8%.

B3: VHH-2.1: humanized VHH-2, version 1, SEQ ID NO: 109 (protein)
VHH: B1 VHH with V24A, Y37V, A49S, F69I, V78L, Q96A, A97K
In the case of B3, in data set [2], the “stability / producibility after humanization” value was “could not be produced and purified from cells”.

B4: VHH-2: llama anti-hCCR8 VHH, SEQ ID NO: 28; in Tables 12 and 13 tested as human IgG1 Fc fusion (protein)
VHH: QVQLQESGGGLVQAGGSLRLTCAVSGSTSTINRFAWYRQAPGKQRELVAATSSRTSPNYADSVKGRFRFSRDNARSAVYLQMDNLRPEDTAVYFCQARMAMGSSQVVYWGLGTQVTVSS
Consider B4, for which the EC50 was 1.3 nM in the data set with hCCR8 (Table 12, VHH-2 CDR alanine mutants as human Fc fusions, HEK293 hCCR8) and 0.24 nM in data set [1]. Also, in the data set with hCCR8 (Table 12, normalized to wild type VHH-2-Fc), the “% Bmax” value amounted to 100%. For the same molecule, the “Normalized Bmax (%)” value in data set [1] was found to be 100.0%.

B5: VHH-1-mFc: VHH-1 fused to hinge of mouse IgG2a Fc, SEQ ID NO: 239 (protein)
chain: QVQLQESGGGLVQAGGSLRLSCVASGSTSSIRRIGWYRQAPGKQRELVARFSSGGGTNYADFVKGRFTISGDNAKNTMYLQMNSLKPEDTAVYYCSARRLLGTSRVDYWGQGTQVTVSSEPRGPTIKPCPPCKCPAPNLLGGPSVFIFPPKIKDVLMISLSPIVTCVVVDVSEDDPDVQISWFVNNVEVHTAQTQTHREDYNSTLRVVSALPIQHQDWMSGKEFKCKVNNKDLPAPIERTISKPKGSVRAPQVYVLPPPEEEMTKKQVTLTCMVTDFMPEDIYVEWTNNGKTELNYKNTEPVLDSDGSYFMYSKLRVEKKNWVERNSYSCSVVHEGLHNHHTTKSFSRTPGK
As for B5, in data set [3], the “fold smaller tumor volume than isotype control” value turned out to be 1.8 fold and the “tumor growth inhibition (TGI)” value was 50.3%.

B6: VHH-1.2: humanized VHH-1, version 2, SEQ ID NO: 107 (protein)
VHH: EVQLVESGGGLVQPGGSLRLSCAASGSTSSIRRIGWYRQAPGKGLEWVARFSSGGGTNYADSVKGRFTISGDNSKNTMYLQMNSLRAEDTAVYYCSARRLLGTSRVDYWGQGTTVTVSS
As to B6, the “binding to hCCR8 expressed” value with hCCR8 is on record as “maintained their hCCR8 binding properties”.

B7: VHH-1.3-2: VHH-1.3 variant L110V, SEQ ID NO: 187; tested as Fc fusion (protein)
VHH: B6 VHH with L45R, W47L, L101V
Regarding B7, in data set [1], the EC50 was 2.21 nM and the “Normalized Bmax (%)” value was determined as 115.7%.

B8: VHH-1.3: humanized VHH-1, version 3, SEQ ID NO: 108; Table 13 tested as Fc fusion (protein)
VHH: B6 VHH with L45R, W47L
As to B8, the “binding to hCCR8 expressed” value with hCCR8 is “maintained their hCCR8 binding properties”. In data set [1], the midpoint of the response, the EC50, lay at 5.46 nM and the “Normalized Bmax (%)” value is given as 88.6%.

B9: VHH-1.3-1: VHH-1.3 variant G64S, SEQ ID NO: 186; tested as Fc fusion (protein)
VHH: B6 VHH with L45R, W47L, G56S
B9: in data set [1], the EC50 was found to be 2.03 nM and the “Normalized Bmax (%)” value was 85.3%.

B10: VHH-1.1: humanized VHH-1, version 1, SEQ ID NO: 106 (protein)
VHH: B6 VHH with Y37V, A49S, G71R, M78L, S96A, A97K
For B10, the “stability / producibility after humanization” value in data set [2] was “could not be produced and purified from cells”.

Values taken from US20250092146A1, “ANTI-CCR8 ANTIBODIES, CONJUGATES, AND USES THEREOF” (Abilita Bio, Inc., priority 2023, published 2025).
